The supplement of paper PMC10567573

B1: FAM46D (parent)
chain: LELKFVSSLRRQFEFSVDSFQIVL

Variants of: B1
Assay: protein stability index of a GFP-peptide fusion (GPS, HEK-293T) (PSI 1-6); higher = more stable
Settings: c terminus: a fixed tail appended
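Note: lentivirally expressed fusions sorted by FACS into six bins by GFP to DsRed ratio, PSI derived from sequencing read proportions per bin multiplied by bin number.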

In order of rising protein stability index:
1. F5E  1.4
2. S7T  1.5
3. V6Q  1.56
4. L3P  1.62
5. F5K  1.64
6. L3E  1.66
7. S8V  1.71
8. Q12C  1.78
9. L9E  1.82
10. L3H  1.82
11. S7N  1.88
12. S8F  1.95
13. F5L  1.96
14. R11D  1.97
15. R10W  2.01
16. L9Y  2.01
17. R10V  2.04
18. S8K  2.05
19. K4Y  2.06
20. V6P  2.08
21. F5D  2.09
22. L3G  2.11
23. S8R  2.15
24. R10Y  2.17
25. L3Y  2.2
26. V6C  2.22
27. R10N  2.23
28. L3R  2.23
29. R11M  2.27
30. K4A  2.28
31. L3N  2.3
32. F5N  2.37
33. S7W  2.37
34. K4E  2.38
35. V6F  2.38
36. L3Q  2.38
37. F5R  2.39
38. Q12R  2.39
39. L9K  2.41
40. L3F  2.43
41. S7Q  2.43
42. S8Y  2.44
43. Q12H  2.46
44. V6S  2.49
45. Q12N  2.49
46. L3I  2.5
47. Q12D  2.52
48. R11I  2.54
49. Q12E  2.55
50. S8A  2.57
51. S7K  2.57
52. F5Q  2.59
53. F5G  2.6
54. V6M  2.61
55. R11L  2.62
56. L9N  2.64
57. Q12P  2.65
58. R10C  2.67
59. S7P  2.67
60. Q12F  2.68
61. S8P  2.69
62. R10M  2.72
63. V6D  2.73
64. V6E  2.75
65. L9I  2.75
66. S7G  2.76
67. Q12G  2.76
68. V6A  2.77
69. L3W  2.77
70. R10F  2.79
71. F5T  2.8
72. S8G  2.81
73. V6L  2.81
74. V6G  2.81
75. R10T  2.83
76. L3C  2.84
77. S7I  2.85
78. K4I  2.9
79. K4G  2.9
80. V6H  2.9
81. L9H  2.9
82. S7R  2.91
83. S8N  2.92
84. R10H  2.93
85. L9A  2.93
86. K4N  2.95
87. S8Q  2.95
88. V6I  2.95
89. L9F  2.95
90. S8C  2.96
91. R11H  2.97
92. S8D  2.97
93. S8W  2.98
94. R11S  2.99
95. L9T  2.99
96. S8T  3
97. R10A  3
98. L3V  3
99. F5P  3.01
100. S7M  3.02
101. R11C  3.03
102. L9P  3.04
103. E2Y  3.04
104. R11Q  3.05
105. R11N  3.06
106. Q12S  3.06
107. R11F  3.08
108. Q12K  3.09
109. Q12M  3.09
110. F5S  3.1
111. K4F  3.11
112. S7Y  3.11
113. R11Y  3.14
114. V6R  3.15
115. L3T  3.15
116. V6Y  3.16
117. S7C  3.17
118. S7H  3.18
119. L9C  3.2
120. L3D  3.2
121. R11K  3.21
122. S7A  3.21
123. S8H  3.22
124. F5Y  3.22
125. R10P  3.23
126. K4R  3.25
127. K4L  3.25
128. S7D  3.25
129. F5C  3.27
130. L9Q  3.29
131. V6T  3.31
132. S8M  3.34
133. L3K  3.37
134. R10I  3.38
135. L3A  3.39
136. R11T  3.4
137. K4H  3.46
138. S8L  3.46
139. R10L  3.46
140. R10S  3.46
141. R11E  3.47
142. L9W  3.47
143. K4D  3.48
144. V6K  3.51
145. F5V  3.54
146. K4C  3.62
147. L9S  3.64
148. R11G  3.69
149. L9R  3.73
150. K4S  3.75
151. K4P  3.77
152. F5I  3.77
153. K4Q  3.84
154. L3S  3.84
155. L9D  3.93
156. F5A  3.94
157. V6W  4
158. L9V  4.14
159. K4M  4.16
160. K4V  4.21
161. F5M  4.22
162. S7E  4.25
163. R11W  4.32
164. S7F  4.35
165. V6N  4.62
166. R11A  4.7
167. Q12A  4.78
